Laboratory results from paper PMC10417383, “DNA-Binding Activity of CAMTA3 Is Essential for Its Function: Identification of Critical Amino Acids for Its Transcriptional Activity”.

Key:
Test in all cases: EMSA; 500 ng protein; 1X LightShift EMSA binding buffer, 50 ng/ul poly(dI-dC), 20 fmol probe in 20 ul, +/- 4 pmol unlabeled DNA, room temperature 30 min; 5% native PAGE, 0.5X TBE; pH and salt not given
Conditions in all cases: protein: recombinant; tags: His (pET28a); label: 3'-biotin on strand 1; blunt
CAMTA3 CG-1 M6 = target: T1, CAMTA3 CG-1 M6 (Arabidopsis thaliana, UniProt Q8GSA7 1-153, Y132A)
T1 sequence: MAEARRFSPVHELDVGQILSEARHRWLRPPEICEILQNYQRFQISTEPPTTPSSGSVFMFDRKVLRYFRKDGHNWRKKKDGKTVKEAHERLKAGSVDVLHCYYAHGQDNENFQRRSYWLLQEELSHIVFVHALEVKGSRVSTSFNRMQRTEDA

CAMTA3 CG-1 M1 = target: T2, CAMTA3 CG-1 M1 (Arabidopsis thaliana, UniProt Q8GSA7 1-153, W26A)
T2 sequence: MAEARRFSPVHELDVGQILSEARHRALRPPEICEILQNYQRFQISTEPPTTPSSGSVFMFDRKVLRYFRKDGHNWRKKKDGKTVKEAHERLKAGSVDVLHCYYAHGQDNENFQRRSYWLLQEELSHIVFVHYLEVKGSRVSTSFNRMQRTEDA

CAMTA3 CG-1 M4 = target: T3, CAMTA3 CG-1 M4 (Arabidopsis thaliana, UniProt Q8GSA7 1-153, Y102A;Y103A)
T3 sequence: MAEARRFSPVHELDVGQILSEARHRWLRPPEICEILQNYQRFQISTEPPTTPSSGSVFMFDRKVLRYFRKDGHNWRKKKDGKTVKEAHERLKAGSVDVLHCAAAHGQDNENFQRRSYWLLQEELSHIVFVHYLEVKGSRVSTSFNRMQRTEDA

CAMTA3 CG-1 M2 = target: T4, CAMTA3 CG-1 M2 (Arabidopsis thaliana, UniProt Q8GSA7 1-153, W75A)
T4 sequence: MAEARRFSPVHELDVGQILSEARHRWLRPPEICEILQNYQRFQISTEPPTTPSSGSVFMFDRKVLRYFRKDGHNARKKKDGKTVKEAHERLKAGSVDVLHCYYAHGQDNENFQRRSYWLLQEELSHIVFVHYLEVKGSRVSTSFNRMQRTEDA

CAMTA3 CG-1 M3 = target: T5, CAMTA3 CG-1 M3 (Arabidopsis thaliana, UniProt Q8GSA7 1-153, H88A)
T5 sequence: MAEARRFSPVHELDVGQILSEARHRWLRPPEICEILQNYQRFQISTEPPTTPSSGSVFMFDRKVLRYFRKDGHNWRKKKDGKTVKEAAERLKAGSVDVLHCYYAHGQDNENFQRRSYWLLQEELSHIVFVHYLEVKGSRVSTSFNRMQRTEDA

Measured: binding result

B1: PDF1.4 promoter probe (dsDNA)
DNA 1: CGTGAAAGTCACGCGCCAAGAACAAA
DNA 2: TTTGTTCTTGGCGCGTGACTTTCACG
no binding: all assays above
